According to patent US20260265379A1:

Target: PD-L1 at the surface of transduced cells (UniProt Q9NZQ7)
Test: flow cytometry, CHO-PD-L1 cells

PD-L1 at the surface of transduced cells, sequence (Q9NZQ7 19-290 limits assumed): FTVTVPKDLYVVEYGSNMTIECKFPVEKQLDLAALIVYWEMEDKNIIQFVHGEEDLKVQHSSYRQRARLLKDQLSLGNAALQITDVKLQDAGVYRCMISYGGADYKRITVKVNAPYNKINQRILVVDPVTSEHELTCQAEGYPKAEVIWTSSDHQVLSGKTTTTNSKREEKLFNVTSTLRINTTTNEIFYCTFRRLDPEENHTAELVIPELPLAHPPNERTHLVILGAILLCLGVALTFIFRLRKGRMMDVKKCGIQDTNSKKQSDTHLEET

- MFI at 10 nM: 38000 MFI
- MFI at 100 nM: 41600 MFI
Substance: Isotype Durvalumab (antibody)
